Experimental data: paper PMC11021519, “Niche Tet maintains germline stem cells independently of dioxygenase activity” (The EMBO Journal, 2024)

B1: HA-Stat92E (natural protein, Drosophila, UniProt Q24151 1-761, looked up)
chain: MSLWKRISSHVDCEQRMAAYYEEKGMLELRLCLAPWIEDRIMSEQITPNTTDQLERVALKFNEDLQQKLLSTRTASDQALKFRVVELCALIQRISAVELYTHLRSGLQKELQLVTEKSVAATAGQSMPLNPYNMNNTPMVTGYMVDPSDLLAVSNSCNPPVVQGIGPIHNVQNTGIASPALGMVTPKVELYEVQHQIMQSLNEFGNCANALKLLAQNYSYMLNSTSSPNAEAAYRSLIDEKAAIVLTMRRSFMYYESLHEMVIHELKNWRHQQAQAGNGAPFNEGSLDDIQRCFEMLESFIAHMLAAVKELMRVRLVTEEPELTHLLEQVQNAQKNLVCSAFIVDKQPPQVMKTNTRFAASVRWLIGSQLGIHNNPPTVECIIMSEIQSQRFVTRNTQMDNSSLSGQSSGEIQNASSTMEYQQNNHVFSASFRNMQLKKIKRAEKKGTESVMDEKFALFFYTTTTVNDFQIRVWTLSLPVVVIVHGNQEPQSWATITWDNAFAEIVRDPFMITDRVTWAQLSVALNIKFGSCTGRSLTIDNLDFLYEKLQREERSEYITWNQFCKEPMPDRSFTFWEWFFAIMKLTKDHMLGMWKAGCIMGFINKTKAQTDLLRSVYGIGTFLLRFSDSELGGVTIAYVNENGLVTMLAPWTARDFQVLNLADRIRDLDVLCWLHPSDRNASPVKRDVAFGEFYSKRQEPEPLVLDPVTGYVKSTLHVHVCRNGENGSTSGTPHHAQESMQLGNGDFGMADFDTITNFENF
notes: Drosophila Stat92E, full-length isoform Stat92E-PF; source: bacteria (E. coli), pET32a(+), purified (Ni-NTA); not shown: HA, N-terminal, kept
B2: Strep-Bap55 (natural protein, Drosophila, UniProt Q7K012 1-425, looked up)
chain: MSGGTMLYGGDEIGALVFDPGHHSLRVGYAQEDSPKAEIPSVVGIGAAPETNLDPETKTDNNATPNNADQRKFYVDTNYVTVPRSNMEVQTYMKDGMIDNWDLFEKVIDYAYANVIQSEPEYHPVLFSEASWNVRNNREKLTELMFEKYNVPAFFLVKNAVLAAFSSGRATALVVDSGATHTSAVPVHEGYVLSQAVVKSPLGGDFLSRQCRQHLEKHGIDLSPVYKIASKDVVKERDNGRFTLRKLPENLTQSWQNYMLQLMMQDFQMNVLQVLENPFDERVAAQIPTVHYEFPNGYHQDFGSERFKIAESLFDNAMLGAGQLASTSVGMCDADVRLSLFGSVVVTGGNTLLQGFPERLNRDLQLRAPSNTRLKMISANGSVERRFGAWIGGSILASIGTFQQMWISSQEYEEAGKSQVERKCP
notes: Drosophila Bap55, full-length Bap55-PA; pFastBac-HTB vectors usually also add an N-terminal His6 tag; source: insect cells (baculovirus), purified (Strep-Tactin XT, Superdex 200)

Target: T1, Myc-Tet-C (Drosophila, UniProt M9NEY8-5 1846-2921)
T1 construct: Drosophila Tet, C-terminal domain, aa1846-2921 of Tet-PF (FBpp0306013); also called C-terminal domain of Tet; source: bacteria (E. coli), pET32a(+), purified (Ni-NTA); not shown: Myc, N-terminal, kept
Assay: pull-down; in vitro binding of two purified proteins (10 μg of each), overnight at 4 °C in Buffer A (50 mM Tris-HCl pH 7.5, 50 mM NaCl, 5% glycerol, 1 mM EDTA, 0.1% Igepal CA-630) with Dynabeads Protein G and 5 μg antibody (anti-HA, anti-Myc or anti-Strep); six washes; immunoblot
Details: both partners purified

T1 sequence (M9NEY8 1785-2860): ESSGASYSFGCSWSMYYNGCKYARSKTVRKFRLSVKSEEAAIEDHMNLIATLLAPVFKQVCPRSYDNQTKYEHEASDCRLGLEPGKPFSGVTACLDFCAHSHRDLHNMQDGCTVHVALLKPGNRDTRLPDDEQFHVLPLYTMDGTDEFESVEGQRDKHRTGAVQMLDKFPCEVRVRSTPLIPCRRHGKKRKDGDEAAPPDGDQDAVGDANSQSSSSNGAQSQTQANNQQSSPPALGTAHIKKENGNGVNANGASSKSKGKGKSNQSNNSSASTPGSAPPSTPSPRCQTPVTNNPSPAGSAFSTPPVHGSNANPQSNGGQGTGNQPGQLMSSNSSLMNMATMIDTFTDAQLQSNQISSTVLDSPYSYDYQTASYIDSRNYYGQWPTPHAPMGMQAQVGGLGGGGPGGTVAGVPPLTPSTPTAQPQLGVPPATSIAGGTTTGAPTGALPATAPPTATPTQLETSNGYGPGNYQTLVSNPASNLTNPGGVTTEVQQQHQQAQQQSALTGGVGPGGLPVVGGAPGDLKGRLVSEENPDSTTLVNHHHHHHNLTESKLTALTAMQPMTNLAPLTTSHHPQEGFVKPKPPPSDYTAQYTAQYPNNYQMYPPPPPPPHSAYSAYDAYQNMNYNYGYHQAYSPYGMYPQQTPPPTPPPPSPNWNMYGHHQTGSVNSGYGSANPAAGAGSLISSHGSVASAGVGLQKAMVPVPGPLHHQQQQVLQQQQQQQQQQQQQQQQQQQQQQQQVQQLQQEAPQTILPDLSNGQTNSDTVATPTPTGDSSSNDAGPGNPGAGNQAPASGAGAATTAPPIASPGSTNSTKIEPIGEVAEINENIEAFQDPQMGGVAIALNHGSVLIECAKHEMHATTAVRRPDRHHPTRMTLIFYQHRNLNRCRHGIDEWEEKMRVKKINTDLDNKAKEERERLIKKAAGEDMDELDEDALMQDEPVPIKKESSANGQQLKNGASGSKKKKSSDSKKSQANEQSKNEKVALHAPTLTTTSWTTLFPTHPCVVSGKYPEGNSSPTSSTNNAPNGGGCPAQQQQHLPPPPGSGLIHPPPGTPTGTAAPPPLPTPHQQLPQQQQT

| Binder | binding result |
| --- | --- |
| B1 | binds |
| B2 | binds |
